Ends that are not written are not given here. * marks the point of attachment. Crotonyl(E) = C/C=C/C(=O)*
T1: MORF DPF domain (residues 211–322) F218A (human, UniProt Q8WYB5 211-322, F218A)
T1 sequence: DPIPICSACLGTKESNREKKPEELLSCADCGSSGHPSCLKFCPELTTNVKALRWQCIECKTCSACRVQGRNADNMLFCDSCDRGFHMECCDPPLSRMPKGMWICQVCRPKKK

T2: MORF DPF domain (residues 211–322), wild type (human, UniProt Q8WYB5 211-322)
T2 chain: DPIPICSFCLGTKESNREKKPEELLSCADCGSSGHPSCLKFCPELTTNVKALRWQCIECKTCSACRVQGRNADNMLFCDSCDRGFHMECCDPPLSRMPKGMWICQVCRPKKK

T3: MORF DPF domain (residues 211–322) F287A/R306E/K309E (human, UniProt Q8WYB5 211-322, F287A | R306E | K309E)
T3 sequence: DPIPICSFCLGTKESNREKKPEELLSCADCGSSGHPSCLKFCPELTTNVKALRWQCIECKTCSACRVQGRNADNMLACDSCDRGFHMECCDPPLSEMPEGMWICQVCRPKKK


Assays:
[1] = molecular target: MORF DPF domain (residues 211–322) F287A (human, UniProt Q8WYB5 211-322, F287A); test: NMR
[2] = molecular target: T1, MORF DPF domain (residues 211–322) F218A
[3] = molecular target: T2, MORF DPF domain (residues 211–322), …
[4] = molecular target: T3, MORF DPF domain (residues 211–322) …; test: NMR

MORF DPF domain (residues 211–322) F287A, sequence (Q8WYB5 211-322 F287A): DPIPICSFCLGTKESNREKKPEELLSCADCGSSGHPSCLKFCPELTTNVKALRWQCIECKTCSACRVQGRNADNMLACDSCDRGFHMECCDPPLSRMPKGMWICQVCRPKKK

Binder	Kd [1]	Kd [2]	Kd [3]	Kd [4]
ARTKQTARKSTGGKAPRKQ [unmodified histone H3 peptide (residues 1–19 of H3)]	8000 µM	3.3 µM	3.6 µM	–
ARTKQTARKSTGGK(Crotonyl(E))APRKQ [histone H3K14cr peptide (residues 1–19 of H3)]	–	–	–	285 µM

Reference: paper PMC6797804 (2019)
